T1: PriA (D. radiodurans) (Deinococcus radiodurans R1, UniProt P0DXX8 1-925)
T1 sequence: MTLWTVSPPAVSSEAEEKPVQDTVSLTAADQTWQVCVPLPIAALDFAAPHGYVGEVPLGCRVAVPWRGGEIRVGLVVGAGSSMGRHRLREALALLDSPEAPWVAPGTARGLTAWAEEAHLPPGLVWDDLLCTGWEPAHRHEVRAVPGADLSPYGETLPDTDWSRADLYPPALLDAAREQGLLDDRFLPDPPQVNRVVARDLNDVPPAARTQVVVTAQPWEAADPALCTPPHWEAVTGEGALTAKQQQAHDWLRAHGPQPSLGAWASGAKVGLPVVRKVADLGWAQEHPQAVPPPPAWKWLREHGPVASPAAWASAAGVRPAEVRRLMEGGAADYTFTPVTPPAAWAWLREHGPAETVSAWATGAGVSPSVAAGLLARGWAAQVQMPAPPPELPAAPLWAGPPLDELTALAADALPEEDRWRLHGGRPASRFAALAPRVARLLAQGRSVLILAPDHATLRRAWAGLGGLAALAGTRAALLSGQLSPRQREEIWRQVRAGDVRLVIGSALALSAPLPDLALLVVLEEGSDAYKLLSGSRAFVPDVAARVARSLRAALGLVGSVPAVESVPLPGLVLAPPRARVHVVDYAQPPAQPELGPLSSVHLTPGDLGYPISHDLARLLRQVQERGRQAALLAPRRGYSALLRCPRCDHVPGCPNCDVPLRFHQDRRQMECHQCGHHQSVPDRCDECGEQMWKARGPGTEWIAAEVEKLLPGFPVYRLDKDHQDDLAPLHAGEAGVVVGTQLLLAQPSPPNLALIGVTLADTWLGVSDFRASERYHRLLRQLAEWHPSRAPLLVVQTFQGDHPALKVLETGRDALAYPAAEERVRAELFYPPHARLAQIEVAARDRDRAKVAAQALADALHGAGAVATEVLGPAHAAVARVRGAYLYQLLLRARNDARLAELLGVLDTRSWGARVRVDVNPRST

B1: fully-duplex fork DNA, 25 bp arms (structured_DNA)
DNA 1: GTCGGATCCTCTAGACAGCTCCATGATCACTGGCACTGGTAGAATTCGGC
DNA 2: AACGTCATAGACGATTACATTGCTACATGGAGCTGTCTAGAGGATCCGAC
DNA 3: GCCGAATTCTACCAGTGCCAGTGAT
DNA 4: TAGCAATGTAATCGTCTATGACGTT

Assays:
PriA (D. radiodurans) = biological target: T1, PriA (D. radiodurans); experiment: fluorescence anisotropy; 1 mM Mg2+, no ATP listed; apparent Kd (half-bound); 20 mM Tris-HCl pH 8, 15% glycerol, 50 mM NaCl, 1 mM MgCl2, 1 mM 2-mercaptoethanol, 0.1 g/L BSA, 1 nM DNA, 25 C; settings: protein: recombinant, tags: N-terminal His6 removed by thrombin, leaving Gly-Ser-His before Met1
PriA (E. coli) = PriA (E. coli) (Escherichia coli K12, UniProt P17888 1-732); experiment: as above; settings: protein: recombinant
[1] = label: 3' fluorescein on S8 (nascent lagging strand), three-way fork without gap: S5[1-25]:S6[26-50] parental, S5[26-50]:S7 leading, S6[1-25]:S8 lagging, blunt arms
[2] = label: 3' fluorescein, single strand

Sequence of PriA (E. coli) (P17888 whole entry): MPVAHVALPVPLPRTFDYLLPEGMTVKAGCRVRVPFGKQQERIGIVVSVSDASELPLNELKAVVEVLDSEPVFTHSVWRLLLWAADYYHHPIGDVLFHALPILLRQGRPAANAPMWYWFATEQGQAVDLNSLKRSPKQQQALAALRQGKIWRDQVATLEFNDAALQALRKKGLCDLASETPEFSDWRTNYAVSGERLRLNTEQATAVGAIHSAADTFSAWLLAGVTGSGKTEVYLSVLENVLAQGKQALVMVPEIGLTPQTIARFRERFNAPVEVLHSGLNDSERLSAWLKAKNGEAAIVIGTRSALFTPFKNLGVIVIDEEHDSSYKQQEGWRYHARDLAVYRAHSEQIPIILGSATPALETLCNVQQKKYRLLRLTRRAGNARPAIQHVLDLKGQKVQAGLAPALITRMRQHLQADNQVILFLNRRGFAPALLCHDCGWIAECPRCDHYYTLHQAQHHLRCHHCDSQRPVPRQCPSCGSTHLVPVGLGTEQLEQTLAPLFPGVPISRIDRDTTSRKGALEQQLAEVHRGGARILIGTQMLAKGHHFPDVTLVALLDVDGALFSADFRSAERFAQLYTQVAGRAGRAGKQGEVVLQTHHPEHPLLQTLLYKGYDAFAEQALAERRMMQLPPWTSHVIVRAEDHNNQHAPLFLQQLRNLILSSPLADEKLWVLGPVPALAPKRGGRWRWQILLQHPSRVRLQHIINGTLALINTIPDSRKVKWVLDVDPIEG

Row | Binder | Kd (PriA (D. radiodurans); [1]) [nM] | Kd (PriA (E. coli); [1]) [nM] | Kd (PriA (D. radiodurans); [2]) [nM] | Kd (PriA (E. coli); [2]) [nM]
1 | B1 | 108 ± 1.7 | 52.1 ± 1 | – | –
2 | AAGCACAATTACCCACGC (ssDNA) [18-base mixed-sequence ssDNA] | – | – | 215 ± 17 | 129 ± 11.9

— PMC4504706, “Deinococcus radiodurans PriA is a Pseudohelicase”
